Data reported in patent US20140056903A1 (Regeneron, published 2014).
One block for each binder: values may come before it.

Assays:
[1] = molecular target: T1, human GFRα3 expressed with a C-terminal myc-myc-hexahistidine tag (human, UniProt O60609 32-374, biotinylated (sites not given) in ELISA format 2 and in the Octet cross-competition; not in SPR); experiment: blocking ELISA 2, biotin-hGFRα3-mmH to coated hARTEMIN-mmH + hRET-10His
T1 construct: also called hGFRα3-mmh; hGFRα3-mmH
Protocol: (§1) The equilibrated sample solutions were then transferred to the hARTEMIN-mmH-coated plate. […] Absorbance was recorded at 450 nm on a Victor X5 plate reader (Perkin Elmer) to determine the amount of free hGFRα3-hFc in the pre-equilibrated hGFRα3-hFc-antibody solutions that was able to bind to the plate coated with hARTEMIN-mmH. IC₅₀ values, defined as the concentration of antibody required to reduce the signal from a constant concentration of hGFRα3-hFc by 50%, were calculated from the data using Prism software from GraphPad. The absorbance measured at the constant amount of 120 pM hGFRα3-hFc in the absence of anti-GFRα3 antibody is defined as 0% blocking and the absorbance with no added hGFRα3-hFc is defined as 100% blocking. The observed absorbance in the wells containing the highest antibody concentration was used to calculate the maximum blocking percent shown in the table.
In the second ELISA format, the plates, samples and data were processed similarly as for the first format except both hARTEMIN-mmH and human RET with a C-terminal 10 histidine tag (hRET-10His; R&D Systems, #1168-CR/CF) were coated for the blocking ELISA experiment. The 96-well microtiter plates were coated with a mixture of 1.2 ug/ml hARTEMIN-mmH and 6.9 ug/ml hRET-10His proteins in PBS overnight at 4° C. and then blocked with a solution of 0.5% (w/v) BSA. A constant amount of biotinylated human GFRα3 with a C-terminal myc-myc-hexahistidine tag (biotin-hGFRα3-mmH; SEQ ID:370) at 1 nM was pre-mixed with varied amounts of anti-GFRα3 antibodies, ranging from 0 to ˜100 nM in serial dilutions, followed by a 1 hour incubation at RT to allow antibody-biotin-hGFRα3-mmH binding to reach equilibrium. The equilibrated samples were then transferred to the coated plate. After 1 hour of binding, the plate was washed, then the bound biotin-hGFRα3-mmH was detected using HRP conjugated streptavidin (Pierce, #N200), and colorimetric signals were developed using TMB HRP substrates.

[2] = molecular target: T2, human GFRα3 on HEK293/hGFRα3/hRET/SRE-luc cells (human, UniProt O60609 32-382); experiment: cell-based or functional assay
T2 sequence: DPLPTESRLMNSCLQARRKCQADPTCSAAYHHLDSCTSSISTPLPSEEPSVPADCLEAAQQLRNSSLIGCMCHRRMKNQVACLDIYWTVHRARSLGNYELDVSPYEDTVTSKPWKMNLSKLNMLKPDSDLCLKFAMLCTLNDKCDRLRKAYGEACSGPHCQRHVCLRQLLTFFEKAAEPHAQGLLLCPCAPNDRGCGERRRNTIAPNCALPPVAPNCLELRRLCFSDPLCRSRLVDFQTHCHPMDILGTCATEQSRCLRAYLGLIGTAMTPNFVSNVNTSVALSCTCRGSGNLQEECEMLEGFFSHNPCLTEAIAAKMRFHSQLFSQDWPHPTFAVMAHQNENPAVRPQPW

[3] = molecular target: T3, cynomolgus GFRα3 on HEK293/MfGFRα3/MfRet/SRE-Luc cells (cynomolgus, UniProt O60609 1-400 (human entry), limits assumed); experiment: cell-based or functional assay
T3 chain: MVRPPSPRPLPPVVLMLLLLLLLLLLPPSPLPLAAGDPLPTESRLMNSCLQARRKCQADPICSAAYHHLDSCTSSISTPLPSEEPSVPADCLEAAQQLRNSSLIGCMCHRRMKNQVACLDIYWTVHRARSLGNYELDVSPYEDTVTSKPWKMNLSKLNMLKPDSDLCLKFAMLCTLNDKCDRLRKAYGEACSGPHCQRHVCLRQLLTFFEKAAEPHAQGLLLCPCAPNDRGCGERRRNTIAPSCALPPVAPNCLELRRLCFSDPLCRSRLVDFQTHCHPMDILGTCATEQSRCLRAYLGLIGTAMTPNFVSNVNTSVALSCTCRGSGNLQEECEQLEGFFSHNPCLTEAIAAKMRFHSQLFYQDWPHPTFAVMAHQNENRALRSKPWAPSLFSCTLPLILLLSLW

[4] = molecular target: T4, human GFRα3 expressed with a C-terminal hFc tag (human); experiment: blocking ELISA 1, hGFRα3-hFc to coated hARTEMIN-mmH
T4 construct: also called hGFRα3-hFc
Protocol: as §1, with “A constant amount of human GFRα3 fused with a C-terminal human Fc tag (hGFRα3-hFc; SEQ ID:371) at 120 pM was pre-mixed with varying amounts of antibodies, ranging from 0 to ˜10 nM in serial dilutions, followed by an 1 hour incubation at room temperature (RT) to allow antibody-hGFRα3-hFc binding to reach equilibrium. The equilibrated” for “The equilibrated”

% max blocking [1]: 85%
IC50 [1]: 7.3 nM
IC50 (SRE-luc, HEK293/hGFRα3/hRET cells, 100 pM hARTEMIN-mmH) [2]: 2.4 nM
B1: H4H2207N (antibody, human IgG4, V domains shown)
VH: EVQLVESGGGLVQPGRSLRLSCAASGFTFNDYAMHWVRQAPGKGLEWVSGISWNSGNIGYADSVKGRFTISRDNAKNSLYLQMNSLRAEDTALYFCARDTRMATRPFDYWGQGTLVTVSS
VL: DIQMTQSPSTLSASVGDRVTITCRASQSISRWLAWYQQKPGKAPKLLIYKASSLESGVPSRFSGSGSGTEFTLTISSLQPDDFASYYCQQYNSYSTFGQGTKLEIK
notes: human IgG4 Fc (H4H)

EC50 of SRE-dependent luciferase activity in HEK293/mfGFRα3/mfRet/SRE-LUC cells [3]: 0.07 nM
B2: recombinant human ARTEMIN protein with a C-terminal myc-myc-hexahistidine tag (ligand)
chain: AGGPGSRARAAGARGCRLRSQLVPVRALGLGHRSDELVRFRFCSGSCRRARSPHDLSLASLLGAGALRPPPGSRPVSQPCCRPTRYEAVSFMDVNSTWRTVDRLSATACGCLGEQKLISEEDLGGEQKLISEEDLHHHHHH

% max blocking [4]: 70%
IC50 [4]: 0.0829 nM
% max blocking [1]: 97%
IC50 [1]: 3.42 nM
IC50 (SRE-luc, HEK293/hGFRα3/hRET cells, 100 pM hARTEMIN-mmH) [2]: 2.3 nM
B3: H4H2234N (antibody, human IgG4, V domains shown)
VH: EVQLLESGGGLVQSGGSLRLSCAASGFSFNNYAMSWVRQAPGKGLEWVSFISGSGGSTYYADSVKGRFTISRDNSKNTLYLQMNSLRVEDTAVFYCAKDRYNYGTFFDYWGQGTLVTVSS
VL: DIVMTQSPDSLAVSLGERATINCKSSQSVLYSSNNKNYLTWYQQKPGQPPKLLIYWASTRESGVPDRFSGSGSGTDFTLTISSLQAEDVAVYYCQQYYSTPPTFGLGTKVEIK
notes: human IgG4 Fc (H4H)
